Test: soluble on expression in E. coli; label from the status in PepcDB or PDB records

Sequence	soluble on expression in E. coli
MSLWMYIHKIMKLSYKRVILTRELEDIKKDKPLFEREGFKVLELPLIQTKVLEFNLPDEEFDYIVFQSKKAVKIFLGKVNLKGNKKIVAVGKKTAEELEKLGYKADFIPENESAKGLIELFKRLPKGKVLIPRSKIGRTELIKFLKETSFEVFALDVYTTEYVFYTREELLEKLNKGDFIIFYSPSAVKAFFANLQMHKIPKDSLSLKFVAIGKTTKEELQKHSVKNVITSERPSTEDIVKKLKELARDLQKEGHHHHHH	soluble
MGSDKIHHHHHHMTTSYTITCSRPTNYGAVLQTYGLNTALRKMGVDAKVLDYNPKYYYTSTQPLPIRMVRAVVRFPDLTKGRKVFGKFLEDYVPMSAKTYRTLAEIEADVPQADVYICGSDQIWNCKNKLNGKDDAFFLSFAPAKARKVAYAASIAMPEIPNNQKTRYHRLISDFDAVSVREPSSVPMLEDLGIDNVQSVIDPVFLLERNDWDVIADASDFVPTEDYVLVYGYNRQKDVYAYARRLAKKLGVKVYTIGTAIEDYTLDQDRYFWNASPNTFVNLVRNAKAVVTNSFHGTVFSIVYNKPFHFFTVKQTTNSRMLDLLDSLTLKDRHVVGEELLSNDIDYDRPNQLLAEAKKRSLGFLQTNVASYVSENKPMKG	not soluble
MADRNLRDLLAPWVAGLPARELREMTLDSRVAAAGDLFVAVVGHQADGRRYIPQAIAQGVAAIIAEAKDEASDGEIREMHGVPVVYLSQLNERLSALAGRFYHEPSENMRLVAVTGTNGKTTTTQLLAQWSQLLGETSAVMGTVGNGLLGKVIPTENTTGSAVDVQHVLASLVAQGATFGAMEVSSHGLVQHRVAALKFAASVFTNLSRDHLDYHGDMAHYEAAKWMLYSTHHHGQAIVNADDEVGRRWLASLPDAVAVSMEGHINPNCHGRWLKAEAVEYHDRGATIRFASSWGEGEIESRLMGAFNVSNLLLALATLLALGYPLTDLLKTAARLQPVCGRMEVFTAPGKPTVVVDYAHTPDALEKALQAARLHCAGKLWCVFGCGGDRDKGKRPLMGAIAEEFADIVVVTDDNPRTEEPRAIINDILAGMLDAGQVRVMEGRAEAVTNAIMQAKDNDVVLIAGKGHEDYQIVGTQRLDYSDRVTAARLLGVIA	not soluble
MGSDKIHHHHHHMKYILVTGGVISGIGKGVIASSVGTILKSCGLHVTSIKIDPYINIDAGTFSPYEHGEVFVLDDGGEVDLDLGNYERFLDIRLTKDNNLTTGKIYQYVINKERKGDYLGKTVQVVPHITDAIQEWVMRQALIPVDEDGLEPQVCVIELGGTVGDIESMPFIEAFRQFQFKVKRENFCNIHVSLVPQPSSTGEQKTKPTQNSVRELRGLGLSPDLVVCRCSNPLDTSVKEKISMFCHVEPEQVICVHDVSSIYRVPLLLEEQGVVDYFLRRLDLPIERQSRKMLMKWKEMADRYDRLLETCSIALVGKYTKFSDSYASVIKALEHSALAINHKLEIKYIDSTDLEPSTLQEEPVRYHEAWQKLCSAHGVLVPGGFGVRGTEGKIQAIAWARKQKKPFLGVCLGMQLAVVEFSRNVLGWQDANSTEFDPKTSHPVVIDMPEHNPGQMGGTMRLGKRRTLFQTKNSVMRKLYGDTDYLEERHRHRFEVNPVLKKCLEEQGLKFVGQDVEGERMEIVELEDHPFFVGVQYHPEFLSRPIKPSPPYFGLLLASVGRLPHYLQKGCRLSPRDTYSDRSGSSSPDSEITELKFPSISQD	not soluble
QINPAARKELVIENDIETMHPVFKGFKDKLVPHLRMAAQGATLTGVNVPIGDKVFRWNLSPIRVDGDISGIIVQGQDITTLIEAEKQSNLARREAEKSAQARADFLAKMSHEIRTPINGILGVAQLLKDSVEAEEQKNQIDVLRHSGEHLLAVLNDILDFSKIEQGKFNIQKHPFSFADTMRTLENIYRPICENKGVELVIENQLDGNVEIFTDQVRLNQILFNLVSNAVKFTPSGCVRLHAELEQFYGADNSVLVVEISDTGIGIESDKLDEMFEPFVQEEATTTR	not soluble
MTAPRYPRDMIGYGATPPNANWPGNARIAVQIVLNYEEGGENNILHGDAASEAFLSEIVGAAPWPGQRHWNMETIYEYGARAGFWRLHRLMRDLPVTVYGVATALARSPDQVAAMKSAGWEIASHGLKWVEHKDMPEEEERAQIAEAIRLHTEVTGSRPRGWYTGRCSMNTVRLASEAGIDYIADTYDDDLPYWKRIDGRDQLIVPYTLDCNDMRFATPQGFNSGDQFFAYLKDSFDALYAEGGEGAPKMLSIGLHCRLIGRPGRVMALKRFLDYARGHEDVWFATRLQIAEHWVREHPPVARTRPSEMPKADFVAAYGGIFEHSPWIAERAHGLELGPAHDTAGGLHNALCRMFRSASAEERLGVLTAHPDLAGKLAQAKRLTAESTSEQASAGLDALTDEERTTFTRLNTEYVARFGFPFIIAVRDHDKASILAAFQRRIGNDRETEFAEACRQVERIAEFRLRDVLPSLEHHHHHH	soluble
GSMTEETHPDDDSYIVRVKAVVMTRDDSSGGWFPQEGGGISRVGVCKVMHPEGNGRSGFLIHGERQKDKLVVLECYVRKDLVYTKANPTFHHWKVDNRKFGLTFQSPADARAFDRGVRKAIEDLIE	soluble
MGSDKIHHHHHHMDQSLFQNGNFQPLASRMRPQTLDEFVGQTHLLGKDKVLSNLIEHDEISSMIFWGPPGVGKTTLARIIARRTKAQFVTFSAVTSGIKEIKQVMKEAEQNRELGQKTIVFVDEIHRFNKAQQDAFLPYVERGSIILIGATTENPSFEVNAALLSRTRVFVLHGLTSAELVDLLQRALKDPRGYGLQKVKIGKKLLAQIADFANGDARIALNTLEMAVTNAETKGGVITVTQADVAQLLTKKALLYDKNGEEHYNLISALHKSMRNSDVDAAIYWLARMLEAGEDPLYVARRLVRFASEDIGMADSRALEITIAVYQACQFIGMPECTVHLTHAVTYLALAPKSNALYTAYEGAKKDATETLAEPVPLQIRNGVTDLMQDLGYGKDYQYAHNTKDKLTTMQTMPDNLIGKTYYHPTTQGSEAKVKERLEQIKAWHAQHPDPDSPKTKKKS	not soluble
MLALPAEFEQFHWMVDMVQNVDMGLIVINRDYNVQVWNGFMTHHSGKQAHDVIGKSLFEIFPEIPVEWFKLKTKPVYDLGCRSFITWQQRPYLFHCRNVRPVTQQAKFMYQNVTLNPMRTPTGAINSLFLSIQDATSEALVSQQASSQ	not soluble
MHHHHHHHHIGGDFAVVKAKKSLERRGFGVKRGDKIYLHPLEVVYLQIKGIESFGELEDVLSWAESRMEDFSTYYFVYEDLRDRGNKVKIQGEFLLTKKPYLPISERKTIRMEEIAEKARNFDELRLAVVDEESEITYFRVYEPDMMGEQKEELPEIAGVLSDEYVITKQTEIFSRYFYGSEKGDLVTLSLIESLYLLDLGKLNLLNADREELVKRAREVERNFDRRYEVYRNLKERGFVVKTGFKFGSEFRVYRKVESVDDLPHSEYLVDIADSREIRLIDLARAVRLAQNVRKRMVFAYGKNYLCFERVKV	soluble
MESSDIASRIWLIAGPTASGKSAYALDLAERIDGEIVNADSMQIYAGLRVLTAGPSQEETARAPHHLFQIVDPALGWSVGRWLEAATQALAEIQARGKPAIVVGGTGLYFRALTHGLADVPPVPETQREISSLLYAARGETEFREILKPLDPEAEARIESGDRQRLVRAHAVAITTGKSLTAWQTDTKPALAPGSWKGLVLDPPRAELYARCDARLAVMVEQGALDEVRALETRGLDPALPALKAVGYREFAAHLRGETSLDQALDAARQETRRYAKRQLTWFRNQTPDWERIVPLEHHHHHH	not soluble
MIFTYNREHVGDTLMVIVKDSQGAKLDVDRRGQVARVYLQDSKETVAWNIFEVSSLIVIEGAGQITLSDQDIKILNAELLKEGFEDSLVNNIEPTFVVAQIKEIIDHPDSDHLHICQAEINDGKTVQIVCGAPNASVGLKTVAALPGAMMPNGSLIFPGKLRGEDSFGMLCSARELALPNAPQVRGIIELSDQVIVGESFDANKHWKNLEHHHHHH	soluble
MDLASNLGGKIDKSDVLTAVEKYEQYHVFHGGNEEERKANYTDMVNKYYDLATSFYEYGWGESFHFAQRWKGESLRESIKRHEHFLALQLGIQPGQKVLDVGCGIGGPLREIARFSNSVVTGLNNNEYQITRGKELNRLAGVDKTCNFVKADFMKMPFPENSFDAVYAIEATCHAPDAYGCYKEIYRVLKPGQCFAAYEWCMTDAFDPDNAEHQKIKGEIEIGDGLPDIRLTTKCLEALKQAGFEVIWEKDLAKDSPVPWYLPLDKNHFSLSSFRLTAVGRFITKNMVKILEYIRLAPQGSQRVSNFLEQAAEGLVDGGRREIFTPMYFFLARKPE	soluble
MGSDKIHHHHHHMKKQNIAGFSKVDDTANPQDFVSYLDAISSLNSIQKYKQQTFTRLEIQAGDRILDVGCGIGDDVRSLAVKVGNAGEVVGIDRSETMVKEAQSRSADLGLPVAYYVGDAEKLEFPDCTFDACRSDRTFQHLLNPRQALTEIVRVTRCGGRVVVSDPDWETLVIDTGDRALTRKILNFHCDSCVNGWIGRQLPTLFQEVGLHKINVDTYTLILTDCTLADKHLGVINAAMKAQQAGLISIAEAANWITNLEAASQAGRFFCAITGFLAFGCKP	not soluble
MGEKIKLEHGAGGEIMEELLRDVILKTLTLKSAGGIGLDALDDGATIPFGDKHIVFTIDGHTVKPLFFPGGDIGRLAVSGTVNDLAVMGAEPIALANSMIIGEGLDMEVLKRVLKSMDETAREVPVPIVTGDTKVVEDKIEMFVITAGIGIAEHPVSDAGAKVGDAVLVSGTIGDHGIALMSHREGIAFETELKSDVAPIWDVVKAVAETIGWENIHAMKDPTRAGLSNALNEIARKSNVGILVREADIPIRPEVRAASEMLGISPYDVANEGKVVMVVAREYAEEALEAMRKTEKGRNAAIIGEVIADYRGKVLLETGIGGKRFMEPPEGDPVPRIC	soluble
MHVLDLFKIEGKTAIVTGGGRGLGEQIAVGLAEAGANVVVCSRKVEACEQVKEKLEQLGVRSLALRCDVTNPEEVKHVVETTVKEFGGIDILVNNSGATWGAPVEEMPLEAWQKVINVNVTGTFLMSQAVGKVMIAKQTGGSIINIASVAGLGGTHPDILNTIGYNTSKGAVITFTRDLAAKWGKHGIRVNAVAPGFFPTKMSKVVLERVGKKVLEHTPLGRFGGEDDLKGAVLFLASPASAFVTGALLVVDGGSHATGI	soluble
MGSDKIHHHHHHMTNFPPLLLAYGLDLEGPIHRGIATYAKAMIRLLHQSGYPLHLLTGAGGLAQGRLASLSLHRHLDQPSNWSRIQLAQSYFAERLGRSRQTPIKVDSNLIIGDRIQYLQQIDQLINHPFFYRKLRLQAKISDRPFFLKTKNYPVVLTSSPLNLRVSSSSRLIQVIHDLIPLNYLRHPDEAVTFLRRLQATADYSDRIICLSETTRQQFLELFPQAESRTLTLYQPVSFSAEALALTDRPDFAAAVLRRYGLERDRYFFFVGAIEPRKNLETLIAAQQVAVLRTQLPLVIGGTADVHTQDYAQQLQQRSRSTDQILWTGYLTEAEKICLLRHCRALTFLSWQEGFGIPMIEAALCGRSSLLANIPVLREVMGAAATYANPQHPLEVADQLIQLGCYPAQLSELRSRATQQIQAFADGQVQQQIQQVLQSLIS	not soluble
MKIVSIKIKNYRVFEDIKITNIPSFCVIIGANGTGKSTLFDVFGFLRDALKNNIRQALQIRGGFKEVVTRGKESEDIEIELKFRMEILATERLVTYILIIGQEGKKPVIKREILRYKRGEYGSPFHFLDFHNGQGYAIRNEESFESDEELEREEQKLESADILAIKGLGQFQRFKAANAIRSLIENWHVSDFHISDARGSKAALYAEHLSPTGDNIPIVAQYIYQEHPEIFAEILQRMKQRVPGISNVEAKEIEGGSLILKFQDQAFEDSFVDLYVSDGTIKMFAYLILLFDPKPHPLLCVEEPENQLYPTLLRELAEEFASYAHRGGQVFVSTHSPDFLNAVPLDSIFWLIKIQGVTKVEKAADHEVLRNLIAAGDLPGYLWNQGWFEGVAPLEHHHHHH	not soluble

From the DeepSol protein solubility set
